The sequences below were run on Escherichia coli TOP10 (assay: shrunken log2 fold change of peptide-encoding DNA abundance (4.5 h post-induction vs induction); higher = less antimicrobial activity (less host growth inhibition)). Details: time post-induction: 4.5 h; library: site-saturation at positions 5, 18, 19, 20.
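Note: peptides expressed intracellularly from a pBAD plasmid library in pooled LB shake-flask culture, induced with 0.3% L-arabinose, DNA abundance read by NGS, three biological replicates, DESeq2 with apeglm shrinkage.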

Sequence	shrunken log2 fold change
RRIRRRPPRLPRPRPRPAGFPRP	0.439
RRIRRRPPRLPRPRPRPIQIPRP	-0.00118
RRIRFRPPRLPRPRPRPFEIPRP	-0.0265
RRIRTRPPRLPRPRPRPILKPRP	-0.348
RRIRDRPPRLPRPRPRPPLRPRP	0.271
RRIRPRPPRLPRPRPRPNAMPRP	-0.324
RRIRSRPPRLPRPRPRPGQSPRP	0.153
RRIRGRPPRLPRPRPRPVLWPRP	1
RRIRGRPPRLPRPRPRPPDWPRP	1.24
RRIRKRPPRLPRPRPRPIRDPRP	-0.016
RRIRMRPPRLPRPRPRPEMFPRP	2.24
RRIRERPPRLPRPRPRPYCSPRP	-0.57
RRIRNRPPRLPRPRPRPDPCPRP	-0.145
RRIRIRPPRLPRPRPRPMMMPRP	-0.227
RRIRFRPPRLPRPRPRPDMPPRP	-0.016
RRIRARPPRLPRPRPRPTGVPRP	0.439
RRIRMRPPRLPRPRPRPCMRPRP	0.889
RRIRWRPPRLPRPRPRPSTRPRP	0.00128
RRIRGRPPRLPRPRPRPWWYPRP	-0.119
RRIRNRPPRLPRPRPRPCPAPRP	0.203

Sequence	shrunken log2 fold change
RRIRPRPPRLPRPRPRPAYLPRP	-0.317
RRIRDRPPRLPRPRPRPVWSPRP	0.065
RRIRIRPPRLPRPRPRPNPMPRP	-0.169
RRIRKRPPRLPRPRPRPNAPPRP	0.449
RRIRHRPPRLPRPRPRPCTTPRP	-1.7
RRIRTRPPRLPRPRPRPCGWPRP	0.0147
RRIRVRPPRLPRPRPRPSGYPRP	-0.28
RRIRWRPPRLPRPRPRPLEYPRP	-0.152
RRIRIRPPRLPRPRPRPHACPRP	-1.14
RRIRKRPPRLPRPRPRPTFWPRP	0.36
RRIRSRPPRLPRPRPRPANKPRP	-0.283
RRIRGRPPRLPRPRPRPWTTPRP	0.00743
RRIRGRPPRLPRPRPRPWMGPRP	-0.0634
RRIRNRPPRLPRPRPRPKCRPRP	0.0642
RRIRWRPPRLPRPRPRPAPIPRP	0.319
RRIRIRPPRLPRPRPRPHFRPRP	-0.555
RRIRIRPPRLPRPRPRPGDDPRP	0.136
RRIRRRPPRLPRPRPRPNKIPRP	0.755
RRIRHRPPRLPRPRPRPQFAPRP	0.0852
RRIRLRPPRLPRPRPRPFNLPRP	-0.596

Sequence	shrunken log2 fold change
RRIRKRPPRLPRPRPRPLMKPRP	0.0125
RRIRVRPPRLPRPRPRPPGSPRP	0.342
RRIRGRPPRLPRPRPRPEDLPRP	0.582
RRIRMRPPRLPRPRPRPPFAPRP	1.07
RRIRNRPPRLPRPRPRPPWRPRP	0.437
RRIRVRPPRLPRPRPRPATYPRP	-0.0417
RRIRFRPPRLPRPRPRPYMQPRP	-0.68
RRIRYRPPRLPRPRPRPRLGPRP	0.0954
RRIRYRPPRLPRPRPRPGPFPRP	-0.189
RRIRYRPPRLPRPRPRPPNLPRP	-0.248
RRIRRRPPRLPRPRPRPMIFPRP	-0.241
RRIRCRPPRLPRPRPRPTYPPRP	-0.274
RRIRERPPRLPRPRPRPSEMPRP	-0.16
RRIRYRPPRLPRPRPRPGLVPRP	-0.217
RRIRERPPRLPRPRPRPASCPRP	-0.211
RRIRLRPPRLPRPRPRPTHHPRP	0.239
RRIRVRPPRLPRPRPRPNWCPRP	-0.00931
RRIRQRPPRLPRPRPRPTFIPRP	-0.0494
RRIRGRPPRLPRPRPRPTKAPRP	1.03
RRIRDRPPRLPRPRPRPKGIPRP	0.0238

Source: the supplement of paper PMC9112550, “Optimization of the antimicrobial peptide Bac7 by deep mutational scanning” (BMC Biology, 2022)
